Test results from patent publication US20100041597A1, “PEPTIDES TARGETED TO PROTEIN KINASE C ISOFORMS AND USES THEREOF” (priority 2005, published 2010).

Biological target: T1, PKC-ε (Homo sapiens, UniProt Q02156)
T1 sequence (Q02156 1-737): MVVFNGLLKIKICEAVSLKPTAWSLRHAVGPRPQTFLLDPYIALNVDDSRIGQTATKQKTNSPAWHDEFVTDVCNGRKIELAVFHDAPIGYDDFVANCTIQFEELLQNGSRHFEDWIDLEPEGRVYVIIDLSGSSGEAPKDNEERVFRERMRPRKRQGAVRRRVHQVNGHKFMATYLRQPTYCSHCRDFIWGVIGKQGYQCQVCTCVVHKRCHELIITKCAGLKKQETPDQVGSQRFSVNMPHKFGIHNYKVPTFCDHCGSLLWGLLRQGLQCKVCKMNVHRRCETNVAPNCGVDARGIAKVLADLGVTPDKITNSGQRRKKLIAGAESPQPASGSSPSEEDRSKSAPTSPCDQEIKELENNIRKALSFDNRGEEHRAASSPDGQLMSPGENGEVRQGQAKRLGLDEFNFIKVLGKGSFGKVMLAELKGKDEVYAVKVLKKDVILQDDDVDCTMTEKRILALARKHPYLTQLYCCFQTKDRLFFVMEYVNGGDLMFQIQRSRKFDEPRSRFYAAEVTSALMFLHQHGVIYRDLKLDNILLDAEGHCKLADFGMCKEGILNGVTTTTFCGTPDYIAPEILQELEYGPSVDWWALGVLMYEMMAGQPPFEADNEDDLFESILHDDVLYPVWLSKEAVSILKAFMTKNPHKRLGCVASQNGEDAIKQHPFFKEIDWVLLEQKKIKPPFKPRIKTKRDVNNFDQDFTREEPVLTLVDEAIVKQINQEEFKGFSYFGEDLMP
Assay: ELISA-based competitive binding assay with purified PKC isoform
Design: key to Affinity for PKC isoform ε: —: no detectable affinity; Low to very low affinity at 10X or 20X or both PRE concentrations in at least one cell line in the cell extract assay; Low affinity in purified isoform assay.; Moderate affinity at 10X or 20X or both PRE concentrations in at least one cell line in the cell extract assay.; High affinity at 10X or 20X or both PRE concentrations in at least one cell line in the cell extract assay; High affinity in purified isoform assay
Conditions: for inhibition at 50 µM / inhibition at 100 µM / inhibition at 200 µM / calculated binding capacity (100-% n) after subtraction of the DMSO apparent binding capacity: purified PKC-ε; for inhibition at 50 µM / inhibition at 100 µM / inhibition at 200 µM: read-out: calculated binding capacity (100-% n) after subtraction of the DMSO apparent binding capacity; for Affinity for PKC isoform ε: Purified isoform, Table 20
Procedure: Peptides PRE 1, 2, 3, 4, 5, 6, 7, 8, 9, 10, 11, 12 and 13 (see Table 3) were tested for their ability to interfere with binding of PKC isoform-specific antibodies to their target PKC isoforms using a competitive binding assay and purified PKC isoforms.
Procedure: Competitive binding was assessed using a 96 well plate ELISA-based assay as described below.
Greiner 96 well ELISA plates were coated with the appropriate PKC isoform diluted in PBSN (PBS with Calcium/Magnesium+0.05% Sodium azide w/w). 50 μL/well at 250 ng/mL was used. Control wells contained PBSN only. Plates were incubated overnight at 4° C.
The plates were washed 3 times with 200 μL of dH2O per well, then 100 μL of blocking solution was added per well and the plate incubated for 1 h at 37° C. The washing steps with dH2O were repeated and 50 μL of the appropriate PRE solution (PRE stock solution [20 mM in DMSO] diluted in PBSN) was added and the plate incubated for 1 h at room temperature.
After incubation, 5 μL of 1.1:400 anti-PKC (isoform specific antibody) was added per well (to provide a final concentration of 1:4000). For PKC-epsilon, 1.1:800 dilution was used and for PKC-zeta a 1.1:100 dilution was used due to high and low binding affinity, respectively. The plates were then incubated 1 h at room temperature, followed by washing with dH2O as described above.
50 μL of 1:1000 dilution of Alkaline Phosphatase (AP) conjugated antibody (anti-rabbit for all except zeta, which was anti-goat) was then added and the plate incubated for 1 h at room temperature. Washing with dH2O was then repeated. Finally, 100 μL of pNPP solution in pNPP buffer (2 mM MgCl2, 100 mM Sodium bicarbonate in water, pH 9.8) was added to all wells and incubated for 8 minutes for α, βI, βII ε, and ζ, or for 15-20 mins for […] (until sufficient coloration is observed). The reaction was stopped by addition of Stop solution (2N NaOH) and the absorbance at 405 nm was read on a Galaxy Plate reader.
Controls were PKC without PRE; blank controls, and controls containing the final concentrations of DMSO used for solubilizing the PREs. The non-specific binding capacity related to DMSO was also measured.
The antibodies used were as follows: anti-PKC α (Cat. No. SC-208); anti-PKC βI (Cat. No. SC-209); anti-PKC βII (Cat. No. SC-210); anti-PKC δ (Cat. No. SC-213); anti-PKC ε (Cat. No. SC-214); anti-PKC ζ (Cat. No. SC-216-G) (all from Santa Cruz Biotechnology, Inc.). The AP-conjugated antibodies were obtained from Jackson Immuno Research Laboratories (West Grove, Pa.).
Calculations: The OD values measured at 405 nm represent the free PKC coated per well.
OD405 PKC alone−Blank OD405 of each sample=OD405 coated isoform
(OD405 of sample X/OD405 coated isoform)×100=% n that represents the percentage of X binding compared to control.
100-% n measures the relative binding capacity of X towards the tested isoform.
The apparent binding capacity of the DMSO samples was then subtracted from X binding capacity.
All measurements were made in triplicate and the values in the table represent the averaged calculated binding capacity values after subtraction of the DMSO apparent binding capacity (averaged from 12 values, respectively 10.80, 11.20 and 16.40 corresponding to the concentrations of DMSO used to dilute the […] at 200, 100 and 50 μM respectively). The results allow for quantitative comparison of the binding capacity of each PRE towards an individual isoform within each table, but not among isoforms due to differences in sensitivity of the specific antibodies toward the secondary antibody. This applies particularly to PKC-delta. As noted above, the colour development duration was increased 2-3 times and, as a result, the OD405 measurements may be overestimated for this isoform.

For Ac-AKGIQEVKGGDAQNLIGISI-NH2 [PRE 3], the inhibition at 50 µM (PRE 50 μM) was 34%, the inhibition at 100 µM (PRE 100 μM) was 31.5% and the inhibition at 200 µM (PRE 200 μM) was 31%. The “Affinity for PKC isoform ε” value was “H” and the “targeting of PKC-ε” value (purified isoform, Tables 14-19) was “targeted most strongly”.

Ac-AKGIQEVKGGKDAQNLIGISI-NH2 [PRE 5] was tested, and the inhibition at 50 µM (PRE 50 μM) was 0%, the inhibition at 100 µM (PRE 100 μM) was 0% and the inhibition at 200 µM (PRE 200 μM) was 1.8%. The “Affinity for PKC isoform ε” value was “—”.

In the case of Ac-ISIGILNQADK-NH2 [PRE 10], the “calculated binding capacity (100-% n) after subtraction of the DMSO apparent binding capacity” value (“calculated binding capacity (100-% n)” below) (PRE 50 μM) is reported as 0.91, the “calculated binding capacity (100-% n)” value (PRE 200 μM) is reported as 1.75 and the “Affinity for PKC isoform ε” value is reported as “—”.

Ac-ISIGILQNADK-NH2 [PRE 7] was tested, and the “Affinity for PKC isoform ε” value was “L”.

In the case of Ac-KDANQLIGISI-NH2 [PRE 6], the “calculated binding capacity (100-% n)” value (PRE 50 μM) is reported as 2.61, the “calculated binding capacity (100-% n)” value (PRE 100 μM) is reported as 0.46 and the “Affinity for PKC isoform ε” value is reported as “—”.

With Ac-KDAQNLI-NH2 [PRE 12] the “Affinity for PKC isoform ε” value was “—”.

In the case of “Ac-KDAQNLIGISI-NH2 [PRE 4, Ac-KDAQNLIGISI-NH2]”, the inhibition at 50 µM (PRE 50 μM) is reported as 0%, the inhibition at 100 µM (PRE 100 μM) is reported as 0% and the inhibition at 200 µM (PRE 200 μM) is reported as 2.58%. For the same substance, the “Affinity for PKC isoform ε” value was “—”.

In the case of Ac-RDAQNLI-NH2 [PRE 13], the “Affinity for PKC isoform ε” value is reported as “—”.

For Ac-RDAQNLIGISI-NH2 [PRE 11], the “Affinity for PKC isoform ε” value was “L”.

For Ac-isigilgnadk-NH2 [PRE 9], the “calculated binding capacity (100-% n)” value (PRE 50 μM) was 16.35, the “calculated binding capacity (100-% n)” value (PRE 100 μM) was 8.53 and the “Affinity for PKC isoform ε” value was “L”.

With ILEDKGGDAQNLIGISI [PRE 8] the “Affinity for PKC isoform ε” value was “—”.

With RRKKGGKDFVVKR [PRE 1] the “calculated binding capacity (100-% n)” value (PRE 100 μM) was 5.47, the “calculated binding capacity (100-% n)” value (PRE 200 μM) was 0.83 and the “Affinity for PKC isoform ε” value was “—”.
